From publication PMC10872421

Tests used:
[1] = target: FMAL-labeled RLC-exchanged full-length cardiac myosin (porcine (ventricles) | human) (UniProt P79293); test: FRET or BRET
[2] = target: FMAL-labeled F-actin (rabbit) (UniProt P68135); test: FRET or BRET
[3] = target: FMAL-labeled F-actin (rabbit) (UniProt P68135); test: co-sedimentation
[4] = target: FMAL-labeled F-actin (rabbit skeletal muscle) (rabbit) (UniProt P68135); test: FRET or BRET

C0-C2^(cys249, E334K), PKA-phosphorylated (domain or fragment)
FLT-FRET at 2.5 μM relative to WT (relative to WT) [1]: 1.7

C0-C2^(cys249, L349R) (domain or fragment)
FLT-FRET at 2.5 μM relative to WT (relative to WT) [2]: 1.1

C0-C2^(cys249, L349R), PKA-phosphorylated (domain or fragment)
FLT-FRET at 2.5 μM relative to WT (relative to WT) [2]: 1.31

C0-C2^(cys330, E334K), PKA-phosphorylated (domain or fragment)
FLT-FRET at 2.5 μM relative to WT (relative to WT) [1]: 2

C0-C2^(cys330, L349R) (domain or fragment)
FLT-FRET at 2.5 μM relative to WT (relative to WT) [1]: 1.6

C0-C2^(cys330, R282W) (domain or fragment)
FLT-FRET at 2.5 μM relative to WT (relative to WT) [2]: 1.1

C0-C2^cys85 (domain or fragment)
EC50 [2]: 1.4 µM
EC50 [1]: 9 µM

C0-C2^cys85, PKA-phosphorylated (domain or fragment)
fold change of EC50 upon phosphorylation [2]: 2.9 fold
reduction of FRET at 2.5 μM upon phosphorylation [2]: 52%
fold increase of EC50 upon phosphorylation [3]: 1.1 fold

C0-C2^cys249 (domain or fragment)
EC50 [2]: 3 µM
EC50 [1]: 3.4 µM

C0-C2^cys249, PKA-phosphorylated (domain or fragment)
fold change of EC50 upon phosphorylation [2]: 1.7 fold
reduction of FRET at 2.5 μM upon phosphorylation [2]: 52%
fold increase of EC50 upon phosphorylation [3]: 1.6 fold

C0-C2^cys330 (domain or fragment)
EC50 [2]: 6.3 µM
EC50 [1]: 6.9 µM

TMR-C0-C2^(cys249, L352P) (domain or fragment)
EC50 [4]: 1.31 µM

TMR-C0-C2^cys249 (domain or fragment)
EC50 [4]: 2.12 µM
